Test results taken from patent publication US20240123058A1.

Legend:
[1] = target: EBV gB protein ectodomain (24-683 aa) of the substituted M81 strain gB protein, C-terminal 6×His tag (EBV M81 strain) (UniProt P0C762); assay: competition ELISA on coated gB: unlabelled primary antibody at 10 µg/mL, then HRP-labelled 3A3 as secondary
[2] = target: EBV gB protein ectodomain (24-683 aa) of the substituted M81 strain gB protein, C-terminal 6×His tag (EBV M81 strain) (UniProt P0C762); assay: competition ELISA on coated gB: unlabelled primary antibody at 10 µg/mL, then HRP-labelled 3A5 as secondary
[3] = target: EBV gB protein ectodomain (24-683 aa) of the substituted M81 strain gB protein, C-terminal 6×His tag (EBV M81 strain) (UniProt P0C762); assay: competition ELISA on coated gB: unlabelled primary antibody at 10 µg/mL, then HRP-labelled AMMO5 as secondary

With mouse monoclonal antibody 72A1 the competition rate [1] was -1.4%, the competition rate [2] was 8% and the competition rate [3] was -9.3%.
